The values that follow come from patent EP4624492A1 (Shanghai Hongcheng Biopharmaceutical Co., Ltd., dated 2025).

Residue numbers refer to the chain shown, from its start.

The labels stand for the following.
B1: 563E10E12_hzH2L1_hIgG1 (antibody)
heavy: not shown
light: DVVMTQSPLSLPVTPGEPASISCRSSKSLLHSNGITYLFWYLQKPGQSPQLLIYQMSNLASGVPDRFSGSGSGTDFTLKISRVEAEDVGVYYCAQSLELPLTFGGGTKVEIKRTVAAPSVFIFPPSDEQLKSGTASVVCLLNNFYPREAKVQWKVDNALQSGNSQESVTEQDSKDSTYSLSSTLTLSKADYEKHKVYACEVTHQGLSSPVTKSFNRGEC
notes: Humanized, hIgG1/K
B2: 563E10E12_hzH4L0_hIgG1 (antibody)
heavy: not shown
light: B1 light with V2I
notes: Humanized, hIgG1/K
B3: 563E10E12_hzH4L1_hIgG1 (antibody)
heavy: not shown
light: B1 light
notes: Humanized, hIgG1/K
B4: 563E10E12_hzH3L1_hIgG1 (antibody)
heavy: not shown
light: B1 light
notes: Humanized, hIgG1/K
B5: 563E10E12_hzH5L0_hIgG1 (antibody)
heavy: not shown
light: B1 light with V2I
notes: Humanized, hIgG1/K
B6: 563E10E12_hzH5L1_hIgG1 (antibody)
heavy: not shown
light: B1 light
notes: Humanized, hIgG1/K
B7: 559E1B10_hzH2L1_hIgG1 (antibody)
heavy: not shown
light: EIVLTQSPATLSLSPGERATLSCRASQSISDYLHWYQQKPGQAPRLLLKYVSQSISGIPARFSGSGSGTDFTLTISSLEPEDFAVYYCQNGHSFPLTFGGGTKVEIKRTVAAPSVFIFPPSDEQLKSGTASVVCLLNNFYPREAKVQWKVDNALQSGNSQESVTEQDSKDSTYSLSSTLTLSKADYEKHKVYACEVTHQGLSSPVTKSFNRGEC
notes: Humanized, hIgG1/K
B8: 559E1B10_hzH3L2_hIgG1 (antibody)
heavy: not shown
light: B7 light with E1D, L4M
notes: Humanized, hIgG1/K
B9: 559E1B10_hzH1L2_hIgG1 (antibody)
heavy: not shown
light: B7 light with E1D, L4M
notes: Humanized, hIgG1/K
B10: 559E1B10_hzH3L1_hIgG1 (antibody)
heavy: not shown
light: B7 light
notes: Humanized, hIgG1/K
B11: 559E1B10_hzH0L1_hIgG1 (antibody)
heavy: not shown
light: B7 light
notes: Humanized, hIgG1/K
B12: 559E1B10_hzH0L2_hIgG1 (antibody)
heavy: not shown
light: B7 light with E1D, L4M
notes: Humanized, hIgG1/K
B13: 559E1B10_hzH2L2_hIgG1 (antibody)
heavy: not shown
light: B7 light with E1D, L4M
notes: Humanized, hIgG1/K
B14: 559E1B10_hzH3L0_hIgG1 (antibody, V domains shown)
VH: KVQLVQSGAEVKKPGASVKVSCKASGYTFTDYYVNWVRQAPGQGLEWIGVINPHNGDTRYNQKFKGKATLTVDKSTSTAYMELSSLRSEDTAVYYCASWLRRGYYFDSWGQGTTVTVSS
VL: EIVLTQSPATLSLSPGERATLSCRASQSISDYLHWYQQKPGQAPRLLIYYVSQSISGIPARFSGSGSGTDFTLTISSLEPEDFAVYYCQNGHSFPLTFGGGTKVEIKR
notes: Humanized, hIgG1/K
B15: 563E10E12_hzH1L1_DE (antibody, human IgG1, kappa)
heavy: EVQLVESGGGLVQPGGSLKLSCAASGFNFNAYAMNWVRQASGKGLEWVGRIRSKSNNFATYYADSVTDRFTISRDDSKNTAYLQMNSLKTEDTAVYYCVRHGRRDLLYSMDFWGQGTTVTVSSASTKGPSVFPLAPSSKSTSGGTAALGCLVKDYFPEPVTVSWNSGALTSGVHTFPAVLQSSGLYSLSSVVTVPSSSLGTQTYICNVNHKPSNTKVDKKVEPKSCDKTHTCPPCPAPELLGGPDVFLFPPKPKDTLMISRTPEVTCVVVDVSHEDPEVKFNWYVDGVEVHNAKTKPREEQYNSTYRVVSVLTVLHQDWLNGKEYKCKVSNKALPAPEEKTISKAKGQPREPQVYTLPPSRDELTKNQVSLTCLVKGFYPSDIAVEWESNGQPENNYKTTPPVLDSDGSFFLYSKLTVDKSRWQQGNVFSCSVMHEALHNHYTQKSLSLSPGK
light: B1 light
B16: 563E10E12_hzH1L1_VLPLL (antibody, human IgG1, kappa)
heavy: EVQLVESGGGLVQPGGSLKLSCAASGFNFNAYAMNWVRQASGKGLEWVGRIRSKSNNFATYYADSVTDRFTISRDDSKNTAYLQMNSLKTEDTAVYYCVRHGRRDLLYSMDFWGQGTTVTVSSASTKGPSVFPLAPSSKSTSGGTAALGCLVKDYFPEPVTVSWNSGALTSGVHTFPAVLQSSGLYSLSSVVTVPSSSLGTQTYICNVNHKPSNTKVDKKVEPKSCDKTHTCPPCPAPELVGGPSVFLLPPKPKDTLMISRTPEVTCVVVDVSHEDPEVKFNWYVDGVEVHNAKTKPPEEQYNSTLRVVSVLTVLHQDWLNGKEYKCKVSNKALPAPIEKTISKAKGQPREPQVYTLPPSRDELTKNQVSLTCLVKGFYPSDIAVEWESNGQPENNYKTTPLVLDSDGSFFLYSKLTVDKSRWQQGNVFSCSVMHEALHNHYTQKSLSLSPGK
light: B1 light
B17: 559E1B10_hzH1L1_DE (antibody, human IgG1, kappa)
heavy: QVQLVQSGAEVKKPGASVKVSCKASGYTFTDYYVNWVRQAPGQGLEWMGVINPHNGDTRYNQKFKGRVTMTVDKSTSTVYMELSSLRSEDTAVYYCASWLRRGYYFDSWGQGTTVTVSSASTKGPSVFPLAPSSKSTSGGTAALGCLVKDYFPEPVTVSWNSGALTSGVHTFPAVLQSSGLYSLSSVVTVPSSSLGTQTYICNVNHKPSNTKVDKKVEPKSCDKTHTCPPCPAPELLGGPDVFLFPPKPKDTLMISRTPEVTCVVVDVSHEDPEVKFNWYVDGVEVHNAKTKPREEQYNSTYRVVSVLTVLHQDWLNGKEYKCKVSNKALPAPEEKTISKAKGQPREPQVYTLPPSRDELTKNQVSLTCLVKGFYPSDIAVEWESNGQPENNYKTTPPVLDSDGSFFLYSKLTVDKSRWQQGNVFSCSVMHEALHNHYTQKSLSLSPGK
light: B7 light
B18: 559E1B10_hzH1L1_VLPLL (antibody, human IgG1, kappa)
heavy: QVQLVQSGAEVKKPGASVKVSCKASGYTFTDYYVNWVRQAPGQGLEWMGVINPHNGDTRYNQKFKGRVTMTVDKSTSTVYMELSSLRSEDTAVYYCASWLRRGYYFDSWGQGTTVTVSSASTKGPSVFPLAPSSKSTSGGTAALGCLVKDYFPEPVTVSWNSGALTSGVHTFPAVLQSSGLYSLSSVVTVPSSSLGTQTYICNVNHKPSNTKVDKKVEPKSCDKTHTCPPCPAPELVGGPSVFLLPPKPKDTLMISRTPEVTCVVVDVSHEDPEVKFNWYVDGVEVHNAKTKPPEEQYNSTLRVVSVLTVLHQDWLNGKEYKCKVSNKALPAPIEKTISKAKGQPREPQVYTLPPSRDELTKNQVSLTCLVKGFYPSDIAVEWESNGQPENNYKTTPLVLDSDGSFFLYSKLTVDKSRWQQGNVFSCSVMHEALHNHYTQKSLSLSPGK
light: B7 light
B19: 569D11B5_hIgG1 (antibody)
heavy: not shown
light: B1 light with V2I, S7A, P8A, L9F, L11N, P15L, E17T, P18S, K79R, V109L
notes: also called hIgG1-subclass chimeric antibody 569D11B5
B20: 589D7C7_hIgG1 (antibody)
heavy: not shown
light: DIVMTQAAFSNPVTLGTSASISCRSSKSLLHSNGITYLFWYLQKPGQSPQLLIYQMSNLASGVPDRFSGSGSGTDFTLRISRVEAEDVAVYYCAQSLELPLTFGGGTKLEIKRTVAAPSVFIFPPSDEQLKSGTASVVCLLNNFYPREAKVQWKVDNALQSGNSQESVTEQDSKDSTYSLSSTLTLSKADYEKHKVYACEVTHQGLSSPVTKSFNRGEC
notes: also called hIgG1-subclass chimeric antibody 589D7C7

T1 sequence (P51685 whole entry): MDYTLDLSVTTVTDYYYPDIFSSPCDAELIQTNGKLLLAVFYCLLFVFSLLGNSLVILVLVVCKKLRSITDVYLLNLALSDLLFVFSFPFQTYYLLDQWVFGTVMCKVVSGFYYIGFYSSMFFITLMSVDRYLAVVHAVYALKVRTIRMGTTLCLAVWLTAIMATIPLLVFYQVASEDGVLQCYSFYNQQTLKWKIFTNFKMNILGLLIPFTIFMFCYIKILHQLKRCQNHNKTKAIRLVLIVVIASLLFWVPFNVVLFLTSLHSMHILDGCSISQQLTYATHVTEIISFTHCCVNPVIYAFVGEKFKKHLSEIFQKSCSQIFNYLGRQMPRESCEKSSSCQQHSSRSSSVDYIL

The first assay addresses T1, human CCR8 (human, UniProt P51685 1-355). The assay can be described thus: cell-based or functional assay.
Turning to B1, the “IC50 of blockade of CCL1-induced β-arrestin recruitment” value turned out to be 1.52 µg/mL.

Consider B2, for which the “IC50 of blockade of CCL1-induced β-arrestin recruitment” value amounted to 1.49 µg/mL.

As for B3, the “IC50 of blockade of CCL1-induced β-arrestin recruitment” value came out at 2.1 µg/mL.

On to B4, for which the “IC50 of blockade of CCL1-induced β-arrestin recruitment” value stood at 1.53 µg/mL.

With B5, the “IC50 of blockade of CCL1-induced β-arrestin recruitment” value turned out to be 1.7 µg/mL.

As for B6, the “IC50 of blockade of CCL1-induced β-arrestin recruitment” value worked out at 1.38 µg/mL.

As to B7, the “IC50 of blockade of CCL1-induced β-arrestin recruitment” value amounted to 46.5 µg/mL.

For the molecule B8, the “IC50 of blockade of CCL1-induced β-arrestin recruitment” value is 71.2 µg/mL.

With B9, the “IC50 of blockade of CCL1-induced β-arrestin recruitment” value was 7.33 µg/mL.

On to B10, for which the “IC50 of blockade of CCL1-induced β-arrestin recruitment” value was 14.8 µg/mL.

Turning to B11, the “IC50 of blockade of CCL1-induced β-arrestin recruitment” value worked out at 118 µg/mL.

For the molecule B12, the “IC50 of blockade of CCL1-induced β-arrestin recruitment” value was found to be 11.2 µg/mL.

For B13, the “IC50 of blockade of CCL1-induced β-arrestin recruitment” value was 6.69 µg/mL.

A further assay deals with T1, human CCR8. Briefly: cell-based or functional assay. This is another data set of the same source.
With B7, the “EC50 of activation of Jurkat-human FcγRIIIa(158V)-NFAT with 293F-hCCR8 target cells” value (from here on “EC50 … with 293F-hCCR8 target cells”) turned out to be 0.0292 µg/mL.

B8: the “EC50 … with 293F-hCCR8 target cells” value worked out at 0.0344 µg/mL.

Take B9: the “EC50 … with 293F-hCCR8 target cells” value worked out at 0.0325 µg/mL.

On to B10, for which the “EC50 … with 293F-hCCR8 target cells” value is 0.028 µg/mL.

Turning to B14, the “EC50 … with 293F-hCCR8 target cells” value came to 0.0985 µg/mL.

B11: the “EC50 … with 293F-hCCR8 target cells” value turned out to be 0.0305 µg/mL.

As for B12, the “EC50 … with 293F-hCCR8 target cells” value is 0.0286 µg/mL.

As for B13, the “EC50 … with 293F-hCCR8 target cells” value was 0.033 µg/mL.

Another assay deals with T1, human CCR8. The assay can be described thus: cell-based or functional assay. The source holds these as a separate data set.
Consider B1, for which the “EC50 … with 293F-hCCR8 target cells” value came to 0.0305 µg/mL.

As to B2, the “EC50 … with 293F-hCCR8 target cells” value stood at 0.0388 µg/mL.

For the molecule B3, the “EC50 … with 293F-hCCR8 target cells” value worked out at 0.0259 µg/mL.

B4: the “EC50 … with 293F-hCCR8 target cells” value worked out at 0.0261 µg/mL.

As for B5, the “EC50 … with 293F-hCCR8 target cells” value is 0.0355 µg/mL.

In the case of B6, the “EC50 … with 293F-hCCR8 target cells” value came out at 0.0264 µg/mL.

For the next assay, the target named is T1, human CCR8. The assay can be described thus: cell-based or functional assay. The source holds these as a separate data set.
In the case of B15, the “EC50 … with 293F-hCCR8 target cells” value turned out to be 0.0006 µg/mL.

Turning to B16, the “EC50 … with 293F-hCCR8 target cells” value is 0.0013 µg/mL.

Turning to B17, the “EC50 … with 293F-hCCR8 target cells” value is 0.0006 µg/mL.

On to B18, for which the “EC50 … with 293F-hCCR8 target cells” value was determined as 0.0014 µg/mL.

Another assay deals with T1, human CCR8. Briefly: flow cytometry on 293F-hCCR8 cells. In general terms: Flow cytometry measures light scatter and fluorescence of single cells or particles in a stream.
A word on the EC50: it is the concentration needed to bring the measured effect to its halfway point. With B19, the EC50 amounted to 0.113 µg/mL.

With B20, the EC50 turned out to be 0.164 µg/mL.

The target of the next assay is T1, human CCR8. The assay can be described thus: flow cytometry on 293F-hCCR8 cells. This is another data set of the same source.
Molecule B1 returned a 50% effective concentration (EC50) of 0.136 µg/mL.

In turn, B2 displayed an EC50 of 0.102 µg/mL.

B3 displayed an EC50 of 0.116 µg/mL.

The molecule B4 yielded a half-maximal effective concentration (EC50) of 0.114 µg/mL.

On to B5, for which the EC50 came to 0.13 µg/mL.

B6 gave an EC50 of 0.129 µg/mL.

As for B7, a half-maximal effect (EC50) was put at 0.141 µg/mL.

Take B8: the EC50 is 0.133 µg/mL.

As for B9, the EC50 was found to be 0.15 µg/mL.

B10 showed an EC50 of 0.176 µg/mL.

The molecule B14 yielded an EC50 of 0.13 µg/mL.

For B11, the concentration giving a half-maximal response (EC50) came out at 0.135 µg/mL.

The molecule B12 returned an EC50 of 0.0979 µg/mL.

As to B13, the EC50 was determined as 0.204 µg/mL.

The next assay has as its target T1, human CCR8. Briefly: flow cytometry, competition with 10 nM AF647-human CCL1 on 293F-hCCR8 cells.
As usually defined, the IC50 is the concentration that inhibits the measured activity by half. High values mean lower potency, low ones higher potency. Molecule B19 registered an IC50 of 0.0748 µg/mL.

For the molecule B20, the half-inhibitory concentration (IC50) worked out at 0.0526 µg/mL.

The target of the next assay is T1, human CCR8. The assay is described as above. This is another data set of the same source.
Regarding B1, the IC50 was 0.064 µg/mL.

For B2, the IC50 stood at 0.0544 µg/mL.

B3 gave a 50% inhibitory concentration (IC50) of 0.0458 µg/mL.

As to B4, the half-inhibitory concentration (IC50) amounted to 0.0732 µg/mL.

For the molecule B5, the 50% inhibitory concentration (IC50) was determined as 0.0851 µg/mL.

On to B6, for which the IC50 is 0.0878 µg/mL.

Take B7: the IC50 amounted to 0.102 µg/mL.

Molecule B8 gave an IC50 of 0.121 µg/mL.

For B9, the IC50 was 0.0769 µg/mL.

For the molecule B10, the IC50 turned out to be 0.088 µg/mL.

In turn, B14 registered a half-maximal inhibitory concentration (IC50) of 0.443 µg/mL.

The molecule B11 registered a half-inhibitory concentration (IC50) of 0.0438 µg/mL.

B12 yielded an IC50 of 0.0413 µg/mL.

With B13, the IC50 came out at 0.14 µg/mL.
